Conditions: Bos taurus, Thermal, DSC, reversible: yes, whole UniProt chain shown

B1: Alpha-lactalbumin wild type, P00711 (protein)
chain: MMSFVSLLLVGILFHATQAEQLTKCEVFRELKDLKGYGGVSLPEWVCTTFHTSGYDTQAIVQNNDSTEYGLFQINNKIWCKDDQNPHSSNICNISCDKFLDDDLTDDIMCVKKILDKVGINYWLAHKALCSEKLDQWLCEKL
For B1, the “heat capacity change of unfolding” value (pH 3, 44.3 °C, acetate 10 mM) was 1.3 kcal/mol/K, the “unfolding enthalpy (calorimetric)” value (pH 3, 44.3 °C, acetate 10 mM) was 25.6 kcal/mol and the “heat capacity change of unfolding” value (pH 3.2, 29.8 °C, acetate 10 mM) was 1.5 kcal/mol/K. The “unfolding enthalpy (calorimetric)” value (pH 3.2, 29.8 °C, acetate 10 mM) was 21.4 kcal/mol, the Tm (pH 3.2, acetate 10 mM) was 29.8 °C and the “heat capacity change of unfolding” value (pH 3.2, acetate 10 mM) was 0.92 kcal/mol/K. The “unfolding enthalpy (calorimetric)” value (pH 3.2, acetate 10 mM) was 36.1 kcal/mol, the “unfolding enthalpy (van 't Hoff)” value (pH 3.2, acetate 10 mM) was 43.5 kcal/mol and the “heat capacity change of unfolding” value (pH 3.5, 41 °C, acetate 10 mM) was 1.6 kcal/mol/K. The “unfolding enthalpy (calorimetric)” value (pH 3.5, 41 °C, acetate 10 mM) was 13.1 kcal/mol, the Tm (pH 3.5, acetate 10 mM) was 41 °C and the “heat capacity change of unfolding” value (pH 3.5, acetate 10 mM) was 1.19 kcal/mol/K. For the same protein, the “unfolding enthalpy (calorimetric)” value (pH 3.5, acetate 10 mM) was 47.8 kcal/mol, the “unfolding enthalpy (van 't Hoff)” value (pH 3.5, acetate 10 mM) was 51.4 kcal/mol and the “heat capacity change of unfolding” value (pH 4.2, 57 °C, acetate 10 mM) was 1.7 kcal/mol/K. For the same protein, the “unfolding enthalpy (calorimetric)” value (pH 4.2, 57 °C, acetate 10 mM) was 2.72 kcal/mol, the Tm (pH 4.2, acetate 10 mM) was 57 °C and the “heat capacity change of unfolding” value (pH 4.2, acetate 10 mM) was 1.61 kcal/mol/K. For the same protein, the “unfolding enthalpy (calorimetric)” value (pH 4.2, acetate 10 mM) was 64.8 kcal/mol, the “unfolding enthalpy (van 't Hoff)” value (pH 4.2, acetate 10 mM) was 59.8 kcal/mol and the Tm (pH 8, Tris-HCl 5 mM) was 64.3 °C. The “heat capacity change of unfolding” value (pH 8, Tris-HCl 5 mM) was 1.7 kcal/mol/K, the “unfolding enthalpy (calorimetric)” value (pH 8, Tris-HCl 5 mM) was 70.6 kcal/mol and the “unfolding enthalpy (van 't Hoff)” value (pH 8, Tris-HCl 5 mM) was 69.1 kcal/mol.
